Literature values, collected in paper PMC3625564.
pKd: −log10 of the molar value.

Target: Endocan (Homo sapiens) (UniProt Q9NQ30)
Assay: biosensor

Chain of UniProt Q9NQ30 (Q9NQ30 20-184): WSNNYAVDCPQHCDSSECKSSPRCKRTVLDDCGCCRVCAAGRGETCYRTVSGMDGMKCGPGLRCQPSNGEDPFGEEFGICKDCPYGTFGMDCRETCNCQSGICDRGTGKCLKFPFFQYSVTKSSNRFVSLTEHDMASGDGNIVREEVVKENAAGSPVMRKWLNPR

## HGF (from UniProt P14210)
  pKd: 8.35
